For 1 substance, Kd results are on record in PMC8629192.

This experiment deals with spike, depending on domain and variant. Nature of the experiment: ELISA. For orientation: An ELISA detects its analyte on a solid surface through an enzyme-linked reagent.

Sequence of LRRC15-Fc (Q8TF66 22-538): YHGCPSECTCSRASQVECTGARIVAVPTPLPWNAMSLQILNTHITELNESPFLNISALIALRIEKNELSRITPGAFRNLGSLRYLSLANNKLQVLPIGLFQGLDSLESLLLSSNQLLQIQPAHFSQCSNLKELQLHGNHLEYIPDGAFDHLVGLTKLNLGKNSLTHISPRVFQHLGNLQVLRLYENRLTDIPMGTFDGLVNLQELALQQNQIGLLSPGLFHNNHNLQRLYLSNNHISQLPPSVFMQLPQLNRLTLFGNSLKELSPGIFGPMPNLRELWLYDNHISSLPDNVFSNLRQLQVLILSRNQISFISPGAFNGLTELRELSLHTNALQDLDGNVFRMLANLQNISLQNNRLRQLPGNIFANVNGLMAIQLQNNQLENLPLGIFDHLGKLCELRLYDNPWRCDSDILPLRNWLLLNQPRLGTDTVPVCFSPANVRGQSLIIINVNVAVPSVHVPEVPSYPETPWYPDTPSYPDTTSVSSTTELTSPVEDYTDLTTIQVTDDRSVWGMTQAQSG

For orientation: Kd means the concentration at which binding is half-saturated. A higher Kd goes with a looser complex. Regarding “LRRC15-Fc (from UniProt Q8TF66) (Fc fusion)”, the Kd lay in the range of 43 to 148 nM.
